B1: Re32D03 (VHH)
VHH: QVQLVESGGGLVQPGGSLRLSCAISGITLDYYAVGWFLQAPGKEREGISCMRNWDGRTVYAPSVKGRFTISSDNAKKMVYLEMDNLKSEDTGVYYCAAGPLPPGISCRIPTPLGYDDWGQGTQVTVSS
B2: Ma28H11 (VHH)
VHH: QVQLVESGGGLVQPGGSLRLSCATSGLTLDHYAIGWFLQAPGKEREGVACVSDDERSLYAPSVMGRFSISRDNAKKTFYLEMNSLKPEDTGVYYCASGPVVPGTLCRIPTVLGYDDWGQGTQVTVSS
notes: Monomeric VHH; also called M28H11
B3: Re6H06 (VHH)
VHH: QVQLVESGGGLVQPGGSLRLSCAASGVTLDYYAIGWFRQAPGKEREGVSCTSSSDGSTYYADSVKGRFTISRDNAKNTVYLQMNSLKPEDTGVYYCAVVPQTYYGGKYYSQCTANGMDYWGKGTLVTVSS
B4: Re9B09 (VHH)
VHH: QVQLVESGGGLVQPGGSLRLSCAASGFTLDYYAIGWFRQAPGKEREGVSRISSSDGSTDYADSVKGRFTISRDNAKNTVYLQMNSLKPEDTAVYYCATVPGTYYSGNWYYTWHPEAVDYWGKGTQVTVSS
B5: Re5D06 (VHH)
VHH: QVQLVESGGGLVQPGGSLRLSCAASGITLDYYAIGWFRQAPGKEREGVSRIRSSDGSTNYADSVKGRFTMSRDNAKNTVYLQMNSLKPEDTAVYYCAYGPLTKYGSSWYWPYEYDYWGQGTQVTVSS
B6: Ma28D01 (VHH)
VHH: QVQLVESGGGLVQPGGSLRLSCVVSELGLDYYQIGWFRQAPGKEREGVSCFRSSDEIRYYADSVKGRFTTFRDNAGTTVYLQMNSLKPEDTGVYYCAVAPQTYYHGTWYGECAAAGMDSWGKGTQVTVSS
notes: Monomeric VHH
B7: Ma28F04 (VHH)
VHH: QVQLVESGGGLVQPGGSLRLSCVVSDLGLDYYQIGWFRQAPGKEREGVSCFRSSDEIRYYADPVKGRFTTFRDNAGTTVYLQMNSLKPEDTGVYYCAVAPQTYYHGTWYGECAAAGMDSWGKGTLVTVSS
notes: Monomeric VHH
B8: Ma16B06 (VHH)
VHH: QVQLVESGGGLVRTGGSLRLSCAASGSILQIWAMKWYRQAPGLQREWIATIPNSGEPFYASSVEGRFTGSRENEETVYLYLNNLEPEDTAVYYCEVNEGVPVREYWGQGTQVTVSS
notes: Monomeric VHH; also called VHH Ma16B06

Key:
[1] = target: SARS-CoV-2 wild type RBD (wt_RBD-AviHis) (SARS-CoV-2 (Wuhan/Wildtype strain)); assay: BLI, biotinylated RBD, mass transport model fit
[2] = target: SARS-CoV-2 spike protein of the original Wuhan strain (SARS-CoV-2 (Wuhan/Wildtype strain), UniProt P0DTC2 14-1273); assay: cell-based or functional assay
[3] = target: SARS-CoV-2 wild type RBD (wt_RBD-AviHis) (SARS-CoV-2 (Wuhan/Wildtype strain)); assay: BLI, biotinylated RBD, mass transport model fit; remark: listed apart in the source

| Binder | Kd [1] [nM] | Lowest virus neutralizing concentration (pM; IC99) [2] [pM] | Kd [3] [nM] |
| --- | --- | --- | --- |
| B1 | ≤ 0.01 | – | – |
| B2 | – | 170 | ≤ 0.01 |
| B3 | ≤ 0.01 | – | – |
| B4 | 0.03 | – | – |
| B5 | ≤ 0.01 | – | – |
| B6 | – | 500 | ≤ 0.01 |
| B7 | – | 500 | ≤ 0.01 |
| B8 | – | 1700 | ≤ 0.01 |

— EP4375293A1 (Max-Planck-Gesellschaft zur Förderung der Wissenschaften …, dated 2024)
